Data taken from paper PMC4051647, “Two Adjacent and Similar TetR Family Transcriptional Regulator Genes, SAV577 and SAV576, Co-Regulate Avermectin Production in Streptomyces avermitilis”.

T1: His6-SAV577 (Streptomyces avermitilis ATCC31267?) (UniProt Q82QD3)
T1 sequence: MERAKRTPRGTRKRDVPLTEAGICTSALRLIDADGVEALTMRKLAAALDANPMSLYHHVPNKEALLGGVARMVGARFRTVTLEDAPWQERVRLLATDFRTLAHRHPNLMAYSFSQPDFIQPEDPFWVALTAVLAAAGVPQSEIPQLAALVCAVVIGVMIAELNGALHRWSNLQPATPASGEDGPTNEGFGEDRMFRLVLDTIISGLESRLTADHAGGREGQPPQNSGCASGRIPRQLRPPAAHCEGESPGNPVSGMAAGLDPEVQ

T2: His6-SAV577 (UniProt Q82QD3 1-265)
T2 sequence: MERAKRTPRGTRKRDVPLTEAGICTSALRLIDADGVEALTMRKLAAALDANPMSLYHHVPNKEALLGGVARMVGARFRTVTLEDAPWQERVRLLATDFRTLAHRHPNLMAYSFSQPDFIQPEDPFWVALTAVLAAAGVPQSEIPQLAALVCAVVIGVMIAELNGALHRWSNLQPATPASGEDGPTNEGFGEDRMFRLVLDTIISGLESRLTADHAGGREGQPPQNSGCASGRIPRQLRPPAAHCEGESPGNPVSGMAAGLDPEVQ


Legend:
[1] = molecular target: T1, His6-SAV577 (Streptomyces avermitilis ATCC31267?); test: EMSA; settings: EMSA: Roche DIG Gel Shift kit binding buffer, 1 ug poly[d(I-C)] per 20 ul, 25 C 30 min, 5% native PAGE 0.5x TBE; footprinting: 20 mM HEPES pH 7.6, 10 mM …
His6-SAV577 = molecular target: T2, His6-SAV577; test: EMSA; 0.3 nM probe; EMSA: Roche DIG Gel Shift kit binding buffer, 1 ug poly[d(I-C)] per 20 ul, 25 C 30 min, 5% native PAGE 0.5x TBE; footprinting: 20 mM HEPES pH 7.6, 10 mM (NH4)2SO4, 1 mM DTT, 0.2% Tween-20, 30 mM KCl, 25 C binding; settings: protein: recombinant; tags: N-terminal His6; chain copies: 2; label: DIG 3'-end; blunt

Row | Molecule | binding [1] | binding result (His6-SAV577)
1 | ATATGCCCTGCCGAGGAGACCCTGGCGAACCCGCCTTGCCCGCTCTCGCGGACTGATACCGGCCTGATCGAGCGCGGCATGGAGACGTACGGGCGCCGCCGCGAGGCGGCACACGCGCCTGCTTCTCCGGCGCTGCCGTCAGTCGCCGACGCGCATGGGTGCAGACCCGACCTCCGCGATGCGTACTGGCGGGCAGGGGGATTGGCTGCTCACCGGGATGTAGCCGCGGCCGCCGTCGCGGATCGTGGGTGTCCTCC (double strand) [probe 4] | no binding | 
2 | GAAACTCAATCGGCAGACCTGGGGTCGAGAAACAGGAACGTTTCGGCCCATCAGGGACGGCGTCGCTCACGCAGCGGGGTCGCATCAGGATCAGGCGCTGCCGAACGCTCTCCCGGCTGGAGGAGGCGAGGGGAGACCGGTCGCCGCCAGCCGGCGGCTCGACCGGGCCACCGGTGGGTGCGCCCCGGGGAGGACACCCACGATCCGCGACGGCGGCCGCGGCTACATCCCGGTGAGCAGCCAATCCCCCTGCCCGCCAGTACGCATCGCGGAGGT (double strand) [probe 3] | no binding | 
3 | GAAGGCATACAGCGTATGGAAACGGGGCGCTGCCGTACCGGCGCCCCGTCACACCGAATGGCGCCCTGCCCGCCTTTCCCCTTGGAGGAGCCAGCCAT (double strand) [probe 1] | binds more weakly | 
4 | GCTCTCGGAATTGTTCGTTCCCTCGCACTACACGTTCGAGATCGGAACGTGAAGACCAGCACGCTCCAGCCCGTTCGGATGCCGTACGTAGTCCGCCATGGCCAAGGGAATGAGCCCCACTCAGGCAGCGCCCTCGTACTCGTCCACGACCAGATGCTTGGACAGCAGCGCCTGAACCGCGTCCGGCGGAAAGTATCAGTGGACGAACG (double strand) [probe 577p] | no binding | 
5 | GGTATTCCATTCGGTGTTGCAGCACGCGACCCACTGCGCATCCCACTCGTGAATTGTGGACCGCCATCCGGGGCACGGATGTCTCCAGGAAGGAACTCCTTCACCCTCGCGAACACCACCTCAGAATCCCACGATCATCAGTTAATCATCAAAGTCAGCGACCTTGACACTACCCCGCCCACCAGGGCAAATTCATAACA (double strand) [probe 7] | no binding | 
6 | probe 2 (dsDNA) DNA 1: CCCAGGTCTGCCGATTGAGTTTCCATACGTCGTATGGTACTAC DNA 2: GTAGTACCATACGACGTATGGAAACTCAATCGGCAGACCTGGG |  | binds
7 | probe 6 (dsDNA) DNA 1: AGTCGCCATACGCTGTACGGTACCAGCGCCCGCGGCACTGCGG DNA 2: CCGCAGTGCCGCGGGCGCTGGTACCGTACAGCGTATGGCGACT |  | binds
